From patent US20130243764A1 (published 2013)

Legend:
[1] = biological target: TNF alpha (species not given); assay: cell-based or functional assay
[2] = biological target: TNF alpha (species not given); assay: cell-based or functional assay; remark: listed apart in the source

IC50 value, TNFα-induced IL-6 release assay (whole blood) [1]: 0.11 nM
B1: BPC1500 (antibody, V domains shown)
VH: EVQLVESGGGLVQPGRSLRLSCAASGFTFDDHALHWVRQAPGKGLEWVSAITWNSGHIDYADSVEGRFTISRDNAKNSLYLQMNSLRAEDTAVYYCAKVRYLSTASSLDYWGQGTLVTVSS
VL: not shown
IC50 value, L929 neutralisation assay (cell viability) [2]: 0.13 µg/mL
